The supplement of paper PMC10065799, “High-throughput profiling of sequence recognition by tyrosine kinases and SH2 domains using bacterial peptide display” (eLife, 2023)
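Note: 11-residue human phosphosite peptides and single-mutation variants displayed on the E. coli surface, counted by deep sequencing, each peptide's frequency after selection divided by its frequency in the unselected input library; frequency after pTyr selection over input frequency; kinase dosed for 20-30% of maximal phosphorylation in three min.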

Each sequence was assayed against Hck (UniProt P08631) (assay: phosphorylation enrichment, bacterial display (enrichment ratio); higher = better substrate or ligand; peptides without Tyr show the background).
Hck, sequence (P08631 whole entry, looked up): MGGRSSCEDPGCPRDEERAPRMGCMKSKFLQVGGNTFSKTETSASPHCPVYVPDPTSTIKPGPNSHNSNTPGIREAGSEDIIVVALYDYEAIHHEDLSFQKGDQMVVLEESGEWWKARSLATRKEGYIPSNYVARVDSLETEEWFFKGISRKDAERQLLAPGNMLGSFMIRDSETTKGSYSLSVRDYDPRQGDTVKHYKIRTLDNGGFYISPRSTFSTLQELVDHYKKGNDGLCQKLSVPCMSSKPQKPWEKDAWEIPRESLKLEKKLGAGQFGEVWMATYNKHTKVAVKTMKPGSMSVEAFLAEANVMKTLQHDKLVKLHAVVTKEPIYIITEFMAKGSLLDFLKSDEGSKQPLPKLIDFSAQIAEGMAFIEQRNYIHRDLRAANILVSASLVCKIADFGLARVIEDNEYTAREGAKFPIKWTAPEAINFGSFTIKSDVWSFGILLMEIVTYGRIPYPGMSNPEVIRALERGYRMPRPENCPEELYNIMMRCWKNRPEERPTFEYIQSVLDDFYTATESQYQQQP
Work on EEQKKYYNAVK [SCN5A_Y1494_M1498V] yielded a phosphorylation enrichment of 0.496. In the case of HNVPIYEGYGL [ACTA1_Y168_A172G], the phosphorylation enrichment is reported as 17.4. In the case of EQKKFSNAMKK [SCN5A_Y1495_Y1495S_YF], the phosphorylation enrichment is reported as 0.364. For SDFFAYSPVQE [H6PD_Y449_R453Q_YF], the phosphorylation enrichment was 0.647. For KKGIVYIFNGR [ITGAV_Y404], the phosphorylation enrichment was 0.423. For DNEYAYLKAII [HNF4A_Y288], the phosphorylation enrichment was 1.58. For GQAPGYSFTAA [CYCS_Y47_YF], the phosphorylation enrichment was 0.416. Work on KFDLMYAKHAF [TUBA1A_Y399_R402H] yielded a phosphorylation enrichment of 0.438. Work on RGEKQYLAAPL [ALOX12_Y295] yielded a phosphorylation enrichment of 0.545. PMFTKYGNGLL [RPGRIP1L_Y196_S199G] gave a phosphorylation enrichment of 0.534. KKFPDYIQIAR [SGMS2_Y59_M64R_YF] gave a phosphorylation enrichment of 0.478. With RFVSRYIFNRE [HLA-DQB1_Y62_T60S_YF] the phosphorylation enrichment was 0.79. FIIFIYAMKKK [SLCO1B1_Y645_L643F_YF] showed a phosphorylation enrichment of 1.45. NQDRTYFERVR [SPEN_Y632_S635R_YF] showed a phosphorylation enrichment of 0.812. With LRNIDYYRLDG [ATRX_Y2083] the phosphorylation enrichment was 1.16. ADRNHYRRYRR [YBX1_Y145_P149R] showed a phosphorylation enrichment of 0.522. Sequence SDMGQYQCLVF [AXL_Y115_T112M] has a phosphorylation enrichment of 3.14. Work on DDLEVYLKHLL [SACS_Y3477] yielded a phosphorylation enrichment of 0.58. PLQKIYNYNVL [SLC4A1_Y553_T552I] gave a phosphorylation enrichment of 0.564. LLEGKYEWQEV [CDKN1B_Y74_P69L] was tested, and the phosphorylation enrichment was 0.889. Sequence STSYDYCRVPM [BST2_Y8] has a phosphorylation enrichment of 2.22. For GRLGEYDIDEV [SMS_Y134_V132G], the phosphorylation enrichment was 0.647. Work on HITQVYGFYDE [PPP2CA_Y127_Q122H] yielded a phosphorylation enrichment of 5.95. In the case of RFLERYIFNPE [HLA-DPB1_Y57_R61P_YF], the phosphorylation enrichment is reported as 0.51. KSLFHHRQYSA [CPS1_Y1491_Y1491H] gave a phosphorylation enrichment of 0.488. With KKKKQYKDKFL [CASK_Y708_YF] the phosphorylation enrichment was 0.589. Sequence DRLANYLEKVR [KRT40_Y103_S102N] has a phosphorylation enrichment of 0.38. For CGTPEYRAPEI [PRKACA_Y205_L206R], the phosphorylation enrichment was 0.549. EQYELYCEMGS [CBL_Y371] was tested, and the phosphorylation enrichment was 5.35. DQLVKYGVNPG [TMPO_Y127] was tested, and the phosphorylation enrichment was 0.363. Work on CDIPRYIVSQL [MAST2_Y461] yielded a phosphorylation enrichment of 0.482. Work on PFTDPYFDFEI [ZC3H18_Y371_A368T_YF] yielded a phosphorylation enrichment of 1.17. Sequence GMEIVYVFVKK [DNAI2_Y5_YF] has a phosphorylation enrichment of 0.673.

The sequences below were run against EPHB1 (UniProt P54762) in the same assay as above.
EPHB1, sequence (P54762 whole entry, looked up): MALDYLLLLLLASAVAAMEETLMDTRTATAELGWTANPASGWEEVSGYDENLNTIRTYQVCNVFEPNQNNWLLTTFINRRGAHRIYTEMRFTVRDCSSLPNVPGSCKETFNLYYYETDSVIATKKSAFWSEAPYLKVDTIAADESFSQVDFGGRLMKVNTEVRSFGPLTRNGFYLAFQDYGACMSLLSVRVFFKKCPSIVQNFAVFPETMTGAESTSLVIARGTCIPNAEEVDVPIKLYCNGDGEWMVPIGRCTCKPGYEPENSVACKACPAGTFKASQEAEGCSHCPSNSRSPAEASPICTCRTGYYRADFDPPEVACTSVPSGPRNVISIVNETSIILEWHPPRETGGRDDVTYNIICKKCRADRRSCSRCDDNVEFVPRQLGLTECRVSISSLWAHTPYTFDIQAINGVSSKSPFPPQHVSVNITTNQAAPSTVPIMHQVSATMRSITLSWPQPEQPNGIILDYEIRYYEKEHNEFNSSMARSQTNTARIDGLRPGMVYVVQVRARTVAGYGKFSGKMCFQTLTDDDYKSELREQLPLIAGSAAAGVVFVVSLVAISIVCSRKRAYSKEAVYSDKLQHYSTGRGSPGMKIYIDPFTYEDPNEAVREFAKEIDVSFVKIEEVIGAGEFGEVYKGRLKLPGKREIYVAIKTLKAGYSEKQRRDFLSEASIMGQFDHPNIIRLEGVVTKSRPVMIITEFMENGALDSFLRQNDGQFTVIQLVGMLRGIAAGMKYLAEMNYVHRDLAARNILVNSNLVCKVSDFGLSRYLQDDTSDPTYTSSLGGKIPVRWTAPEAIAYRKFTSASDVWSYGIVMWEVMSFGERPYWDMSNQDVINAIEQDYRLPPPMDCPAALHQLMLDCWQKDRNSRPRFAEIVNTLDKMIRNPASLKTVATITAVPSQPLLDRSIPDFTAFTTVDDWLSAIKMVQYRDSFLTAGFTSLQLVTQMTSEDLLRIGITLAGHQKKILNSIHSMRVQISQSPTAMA
Work on EEQKKYYNAVK [SCN5A_Y1494_M1498V] yielded a phosphorylation enrichment of 0.368. HNVPIYEGYGL [ACTA1_Y168_A172G] gave a phosphorylation enrichment of 31.8. Work on EQKKFSNAMKK [SCN5A_Y1495_Y1495S_YF] yielded a phosphorylation enrichment of 0.229. With SDFFAYSPVQE [H6PD_Y449_R453Q_YF] the phosphorylation enrichment was 0.783. Work on KKGIVYIFNGR [ITGAV_Y404] yielded a phosphorylation enrichment of 0.403. Work on DNEYAYLKAII [HNF4A_Y288] yielded a phosphorylation enrichment of 1.68. In the case of GQAPGYSFTAA [CYCS_Y47_YF], the phosphorylation enrichment is reported as 0.354. For KFDLMYAKHAF [TUBA1A_Y399_R402H], the phosphorylation enrichment was 0.521. Sequence RGEKQYLAAPL [ALOX12_Y295] has a phosphorylation enrichment of 0.402. Sequence PMFTKYGNGLL [RPGRIP1L_Y196_S199G] has a phosphorylation enrichment of 0.762. KKFPDYIQIAR [SGMS2_Y59_M64R_YF] showed a phosphorylation enrichment of 3.85. In the case of RFVSRYIFNRE [HLA-DQB1_Y62_T60S_YF], the phosphorylation enrichment is reported as 1.13. FIIFIYAMKKK [SLCO1B1_Y645_L643F_YF] gave a phosphorylation enrichment of 0.709. NQDRTYFERVR [SPEN_Y632_S635R_YF] showed a phosphorylation enrichment of 0.473. LRNIDYYRLDG [ATRX_Y2083] was tested, and the phosphorylation enrichment was 1.07. ADRNHYRRYRR [YBX1_Y145_P149R] gave a phosphorylation enrichment of 0.522. Work on SDMGQYQCLVF [AXL_Y115_T112M] yielded a phosphorylation enrichment of 0.923. DDLEVYLKHLL [SACS_Y3477] showed a phosphorylation enrichment of 0.505. In the case of PLQKIYNYNVL [SLC4A1_Y553_T552I], the phosphorylation enrichment is reported as 0.773. With LLEGKYEWQEV [CDKN1B_Y74_P69L] the phosphorylation enrichment was 1.45. Work on STSYDYCRVPM [BST2_Y8] yielded a phosphorylation enrichment of 11.7. Sequence GRLGEYDIDEV [SMS_Y134_V132G] has a phosphorylation enrichment of 0.909. HITQVYGFYDE [PPP2CA_Y127_Q122H] gave a phosphorylation enrichment of 1.31. Sequence RFLERYIFNPE [HLA-DPB1_Y57_R61P_YF] has a phosphorylation enrichment of 0.892. KSLFHHRQYSA [CPS1_Y1491_Y1491H] was tested, and the phosphorylation enrichment was 1.04. With KKKKQYKDKFL [CASK_Y708_YF] the phosphorylation enrichment was 0.687. DRLANYLEKVR [KRT40_Y103_S102N] gave a phosphorylation enrichment of 0.337. For CGTPEYRAPEI [PRKACA_Y205_L206R], the phosphorylation enrichment was 0.687. Work on EQYELYCEMGS [CBL_Y371] yielded a phosphorylation enrichment of 7.29. DQLVKYGVNPG [TMPO_Y127] was tested, and the phosphorylation enrichment was 0.467. CDIPRYIVSQL [MAST2_Y461] showed a phosphorylation enrichment of 0.535. PFTDPYFDFEI [ZC3H18_Y371_A368T_YF] showed a phosphorylation enrichment of 0.835. GMEIVYVFVKK [DNAI2_Y5_YF] gave a phosphorylation enrichment of 0.709.

These sequences were tested on Fer (mouse) in the same assay as above.
Sequence EEQKKYYNAVK [SCN5A_Y1494_M1498V] has a phosphorylation enrichment of 0.393. For HNVPIYEGYGL [ACTA1_Y168_A172G], the phosphorylation enrichment was 27.9. Work on EQKKFSNAMKK [SCN5A_Y1495_Y1495S_YF] yielded a phosphorylation enrichment of 0.331. SDFFAYSPVQE [H6PD_Y449_R453Q_YF] was tested, and the phosphorylation enrichment was 1.13. For KKGIVYIFNGR [ITGAV_Y404], the phosphorylation enrichment was 0.437. For DNEYAYLKAII [HNF4A_Y288], the phosphorylation enrichment was 0.667. GQAPGYSFTAA [CYCS_Y47_YF] was tested, and the phosphorylation enrichment was 0.364. Work on KFDLMYAKHAF [TUBA1A_Y399_R402H] yielded a phosphorylation enrichment of 1.07. For RGEKQYLAAPL [ALOX12_Y295], the phosphorylation enrichment was 0.365. With PMFTKYGNGLL [RPGRIP1L_Y196_S199G] the phosphorylation enrichment was 0.71. In the case of KKFPDYIQIAR [SGMS2_Y59_M64R_YF], the phosphorylation enrichment is reported as 0.399. For RFVSRYIFNRE [HLA-DQB1_Y62_T60S_YF], the phosphorylation enrichment was 0.976. In the case of FIIFIYAMKKK [SLCO1B1_Y645_L643F_YF], the phosphorylation enrichment is reported as 0.72. With NQDRTYFERVR [SPEN_Y632_S635R_YF] the phosphorylation enrichment was 0.401. LRNIDYYRLDG [ATRX_Y2083] gave a phosphorylation enrichment of 0.499. With ADRNHYRRYRR [YBX1_Y145_P149R] the phosphorylation enrichment was 0.488. For SDMGQYQCLVF [AXL_Y115_T112M], the phosphorylation enrichment was 3.38. Work on DDLEVYLKHLL [SACS_Y3477] yielded a phosphorylation enrichment of 0.653. PLQKIYNYNVL [SLC4A1_Y553_T552I] showed a phosphorylation enrichment of 0.582. LLEGKYEWQEV [CDKN1B_Y74_P69L] was tested, and the phosphorylation enrichment was 1.75. Work on STSYDYCRVPM [BST2_Y8] yielded a phosphorylation enrichment of 4.37. GRLGEYDIDEV [SMS_Y134_V132G] showed a phosphorylation enrichment of 0.688. HITQVYGFYDE [PPP2CA_Y127_Q122H] showed a phosphorylation enrichment of 2.21. RFLERYIFNPE [HLA-DPB1_Y57_R61P_YF] gave a phosphorylation enrichment of 0.627. In the case of KSLFHHRQYSA [CPS1_Y1491_Y1491H], the phosphorylation enrichment is reported as 0.439. In the case of KKKKQYKDKFL [CASK_Y708_YF], the phosphorylation enrichment is reported as 0.502. In the case of DRLANYLEKVR [KRT40_Y103_S102N], the phosphorylation enrichment is reported as 0.373. CGTPEYRAPEI [PRKACA_Y205_L206R] gave a phosphorylation enrichment of 0.582. Sequence EQYELYCEMGS [CBL_Y371] has a phosphorylation enrichment of 3.7. For DQLVKYGVNPG [TMPO_Y127], the phosphorylation enrichment was 0.356. Work on CDIPRYIVSQL [MAST2_Y461] yielded a phosphorylation enrichment of 0.454. Work on PFTDPYFDFEI [ZC3H18_Y371_A368T_YF] yielded a phosphorylation enrichment of 2. For GMEIVYVFVKK [DNAI2_Y5_YF], the phosphorylation enrichment was 0.58.

Each sequence was assayed against FGFR1 (UniProt P11362) in the same assay as above.
FGFR1, sequence (P11362 whole entry, looked up): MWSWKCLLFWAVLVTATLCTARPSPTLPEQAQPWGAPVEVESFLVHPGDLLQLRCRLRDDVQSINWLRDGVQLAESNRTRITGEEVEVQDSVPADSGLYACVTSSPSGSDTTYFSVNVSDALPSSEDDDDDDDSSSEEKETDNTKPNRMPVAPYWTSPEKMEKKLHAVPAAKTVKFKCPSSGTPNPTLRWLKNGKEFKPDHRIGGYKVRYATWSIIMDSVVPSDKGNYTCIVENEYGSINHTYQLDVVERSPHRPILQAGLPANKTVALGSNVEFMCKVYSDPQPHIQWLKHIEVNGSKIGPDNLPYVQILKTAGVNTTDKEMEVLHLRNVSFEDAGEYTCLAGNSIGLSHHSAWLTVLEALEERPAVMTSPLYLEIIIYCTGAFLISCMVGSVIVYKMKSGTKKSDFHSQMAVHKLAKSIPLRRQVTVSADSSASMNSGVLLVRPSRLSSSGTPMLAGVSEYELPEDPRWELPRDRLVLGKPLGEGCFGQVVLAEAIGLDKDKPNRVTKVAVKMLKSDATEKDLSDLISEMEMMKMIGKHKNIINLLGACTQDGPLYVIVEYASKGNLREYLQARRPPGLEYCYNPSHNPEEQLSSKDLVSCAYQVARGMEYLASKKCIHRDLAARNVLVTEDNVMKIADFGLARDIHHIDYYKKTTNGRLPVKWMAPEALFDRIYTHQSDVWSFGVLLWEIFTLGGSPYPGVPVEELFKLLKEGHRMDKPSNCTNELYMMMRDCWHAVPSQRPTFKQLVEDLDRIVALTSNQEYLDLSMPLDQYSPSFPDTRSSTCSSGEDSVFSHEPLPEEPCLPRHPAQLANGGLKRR
EEQKKYYNAVK [SCN5A_Y1494_M1498V] gave a phosphorylation enrichment of 0.425. HNVPIYEGYGL [ACTA1_Y168_A172G] gave a phosphorylation enrichment of 0.666. In the case of EQKKFSNAMKK [SCN5A_Y1495_Y1495S_YF], the phosphorylation enrichment is reported as 0.378. Sequence SDFFAYSPVQE [H6PD_Y449_R453Q_YF] has a phosphorylation enrichment of 0.577. KKGIVYIFNGR [ITGAV_Y404] gave a phosphorylation enrichment of 0.417. DNEYAYLKAII [HNF4A_Y288] gave a phosphorylation enrichment of 3.79. In the case of GQAPGYSFTAA [CYCS_Y47_YF], the phosphorylation enrichment is reported as 0.422. KFDLMYAKHAF [TUBA1A_Y399_R402H] showed a phosphorylation enrichment of 0.397. RGEKQYLAAPL [ALOX12_Y295] was tested, and the phosphorylation enrichment was 0.754. In the case of PMFTKYGNGLL [RPGRIP1L_Y196_S199G], the phosphorylation enrichment is reported as 0.496. KKFPDYIQIAR [SGMS2_Y59_M64R_YF] gave a phosphorylation enrichment of 4.29. RFVSRYIFNRE [HLA-DQB1_Y62_T60S_YF] was tested, and the phosphorylation enrichment was 0.852. Work on FIIFIYAMKKK [SLCO1B1_Y645_L643F_YF] yielded a phosphorylation enrichment of 0.461. With NQDRTYFERVR [SPEN_Y632_S635R_YF] the phosphorylation enrichment was 0.421. For LRNIDYYRLDG [ATRX_Y2083], the phosphorylation enrichment was 13.1. ADRNHYRRYRR [YBX1_Y145_P149R] showed a phosphorylation enrichment of 0.532. With SDMGQYQCLVF [AXL_Y115_T112M] the phosphorylation enrichment was 2.05. DDLEVYLKHLL [SACS_Y3477] showed a phosphorylation enrichment of 0.479. For PLQKIYNYNVL [SLC4A1_Y553_T552I], the phosphorylation enrichment was 0.514. In the case of LLEGKYEWQEV [CDKN1B_Y74_P69L], the phosphorylation enrichment is reported as 1.14. With STSYDYCRVPM [BST2_Y8] the phosphorylation enrichment was 7.46. GRLGEYDIDEV [SMS_Y134_V132G] gave a phosphorylation enrichment of 0.551. With HITQVYGFYDE [PPP2CA_Y127_Q122H] the phosphorylation enrichment was 2.27. RFLERYIFNPE [HLA-DPB1_Y57_R61P_YF] was tested, and the phosphorylation enrichment was 0.46. Sequence KSLFHHRQYSA [CPS1_Y1491_Y1491H] has a phosphorylation enrichment of 0.563. Work on KKKKQYKDKFL [CASK_Y708_YF] yielded a phosphorylation enrichment of 0.572. For DRLANYLEKVR [KRT40_Y103_S102N], the phosphorylation enrichment was 0.382. CGTPEYRAPEI [PRKACA_Y205_L206R] was tested, and the phosphorylation enrichment was 0.603. In the case of EQYELYCEMGS [CBL_Y371], the phosphorylation enrichment is reported as 4.55. With DQLVKYGVNPG [TMPO_Y127] the phosphorylation enrichment was 0.292. In the case of CDIPRYIVSQL [MAST2_Y461], the phosphorylation enrichment is reported as 0.497. PFTDPYFDFEI [ZC3H18_Y371_A368T_YF] showed a phosphorylation enrichment of 16.2. For GMEIVYVFVKK [DNAI2_Y5_YF], the phosphorylation enrichment was 0.587.
